Reference: patent US20060067930A1 (Genentech, published 2006)

B1: 2H7.v16 (antibody, human IgG1, kappa)
light chain: DIQMTQSPSSLSASVGDRVTITCRASSSVSYMHWYQQKPGKAPKPLIYAPSNLASGVPSRFSGSGSGTDFTLTISSLQPEDFATYYCQQWSFNPPTFGQGTKVEIKRTVAAPSVFIFPPSDEQLKSGTASVVCLLNNFYPREAKVQWKVDNALQSGNSQESVTEQDSKDSTYSLSSTLTLSKADYEKHKVYACEVTHQGLSSPVTKSFNRGEC
heavy chain: not shown
notes: Humanized anti-CD20 antibody with no Fc changes; also called humanized 2H7v.16; 2H7 version 16
B2: 2H7.v375 (antibody, human IgG1, kappa)
light: DIQMTQSPSSLSASVGDRVTITCRASSSVSYMHWYQQKPGKAPKPLIYAPSNLASGVPSRFSGSGSGTDFTLTISSLQPEDFATYYCQQWSFNPPTFGQGTKVEIKRTVAAPSVFIFPPSDEQLKSGTASVVCLLNNFYPREAKVQWKVDNALQSGNSQESVTEQDSKDSTYSLSSTLTLSKADYEKHKVYACEVTHQGLSSPVTKSFNRGEC
heavy: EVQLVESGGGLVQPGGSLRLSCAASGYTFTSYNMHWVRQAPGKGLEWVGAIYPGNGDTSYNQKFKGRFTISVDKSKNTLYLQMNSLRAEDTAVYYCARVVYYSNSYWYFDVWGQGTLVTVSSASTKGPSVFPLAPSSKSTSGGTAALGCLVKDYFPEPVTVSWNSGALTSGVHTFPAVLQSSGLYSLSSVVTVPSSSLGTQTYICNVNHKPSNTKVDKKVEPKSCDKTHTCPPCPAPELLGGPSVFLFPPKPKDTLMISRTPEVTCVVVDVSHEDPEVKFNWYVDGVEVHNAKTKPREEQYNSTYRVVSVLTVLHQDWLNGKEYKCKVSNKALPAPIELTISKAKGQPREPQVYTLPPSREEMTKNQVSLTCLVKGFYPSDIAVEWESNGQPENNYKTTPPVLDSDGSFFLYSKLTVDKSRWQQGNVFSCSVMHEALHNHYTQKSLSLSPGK
notes: copies: 2 + 2

Molecular target: T1, human FcγRIII (V158)
T1 construct: also called FcγRIIIA-Val158; CD16
T1 sequence (chain, as listed by the source limits assumed): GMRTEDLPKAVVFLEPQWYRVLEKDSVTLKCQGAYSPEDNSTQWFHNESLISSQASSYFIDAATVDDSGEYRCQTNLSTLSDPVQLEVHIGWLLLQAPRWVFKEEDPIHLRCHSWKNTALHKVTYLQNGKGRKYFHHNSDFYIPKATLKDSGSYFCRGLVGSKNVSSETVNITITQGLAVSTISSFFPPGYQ
Experiment: ELISA of 2H7 variants binding to human FcγRIII (V158)

| Binder | binding result | EC50 (read off the curve) |
| --- | --- | --- |
| B1 | binds | – |
| B2 | – | ~0.6 µg/mL |
